The target of test [1] is T1, HIF bound to HA-pVHL (Homo sapiens, UniProt P40337).
T1 construct: expressed in transfected cells; host or cells: ts20 cells stably transfected with pIRES-HA-VHL
Description: Peptide elution of HIF coimmunoprecipitated with HA-pVHL from ts20 cells. In kind it is binding. The following applies: 7 μg of peptide in 65 μl PBS. On the procedure: Individual G418-resistant colonies were isolated using cloning cylinders and expanded. Cells producing HA-VHL or HA-VHL (Y98H) were identified by anti-HA immunoblot analysis. […] For the tests shown in FIG. 7C, ts20 cells were grown at the restrictive or permissive temperature for 14 hour, methionine-starved for 90 min, and then grown in the methionine-free media supplemented with ^35S-met ([…]) for 90 min.

Test [2] concerns the target T2, pVHL (Homo sapiens, UniProt P40337).
T2 construct: made in house; host or cells: coupled in vitro transcription/translation (TNT kit, Promega)
Description: Binding of 35S-labeled pVHL to immobilized biotinylated HIF (556-575) peptides. The following applies: peptide on monomeric avidin Sepharose, autoradiography.

Square brackets hold non-standard residues; d marks the D form. Ends that are not written are not given here. Hyp = O=C(O)[C@@H]1C[C@@H](O)CN1

T2 sequence (P40337 whole entry): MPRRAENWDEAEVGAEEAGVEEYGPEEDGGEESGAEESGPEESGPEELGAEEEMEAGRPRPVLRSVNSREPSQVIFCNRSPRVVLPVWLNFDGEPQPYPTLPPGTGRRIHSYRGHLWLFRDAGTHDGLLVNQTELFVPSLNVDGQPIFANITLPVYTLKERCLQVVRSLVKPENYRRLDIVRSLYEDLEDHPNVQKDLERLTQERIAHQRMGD
T1 sequence (P40337 whole entry): as above
T1 sequence (P62869 whole entry partner): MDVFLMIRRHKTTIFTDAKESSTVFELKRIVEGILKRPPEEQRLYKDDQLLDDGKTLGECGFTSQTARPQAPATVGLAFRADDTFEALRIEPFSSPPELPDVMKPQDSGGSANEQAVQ
T1 sequence (P83940 whole entry partner): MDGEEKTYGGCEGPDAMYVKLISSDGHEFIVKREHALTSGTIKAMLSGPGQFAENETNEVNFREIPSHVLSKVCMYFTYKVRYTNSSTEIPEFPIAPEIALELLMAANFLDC

For the substance “HIF (556-575) Pro564Ala peptide: HIF1α 556-575 peptide with Pro564 replaced by alanine (DLDLEMLAAYIPMDDDFQLR)”, in test [1], the “elution of HIF bound to HA-pVHL” value was “not eluted”.

Take “HIF (556-575) peptide with the Leu562Ala substitution and hydroxyproline at residue 564: HIF1α 556-575 peptide, Leu562Ala, hydroxyproline at 564 (DLDLEMAA[Hyp]YIPMDDDFQLR)”: in test [2], the “binding to pVHL” value was “pVHL bound”.

These data come from US9766240B2, “Method of identifying a compound for treating a hypoxic or ischemic related disorder” (Dana Farber Cancer Institute, Inc., priority 2001, dated 2017).
